The values that follow come from patent US20080093219A1.

This test has as its target T4 tail-fiber protein P37 SΔ1ras2 (gene 37 SΔ1 deletion with the H-ras mAb epitope inserted at the junction), on SΔ1ras2 phage (bacteriophage T4; bacteriophage T4 with human H-ras insert) (UniProt P03744). Nature of the test: cell-based or functional assay.

rat monoclonal IgG antibody Y13-259 yielded a phage inactivated after mAb and anti-rat IgG serum of 85%; a phage inactivated, control treatment (mAb with buffer only) of 99.8%; a phage inactivation, time course of mAb treatment of 99.9%.
